Legend:
[1] = biological target: T1, CD8 on human T cells (PBMC) (human, UniProt P01732 22-235); test: flow cytometry on human PBMC, CD5+/CD4- gated cells (bear CD8 and CD3), detection anti-human Fc (MFI)
T1 construct: whole, on cells; The CD8+ (CD5+ CD4-) cells also carry CD3; also called CD5+ CD4- gated PBMC; CD8+ T cells

[2] = biological target: T2, B7-H3 on A498 and JIMT-1 target cells (UniProt Q5ZPR3 29-534, limits assumed); test: cell-based or functional assay
T2 sequence (looked up): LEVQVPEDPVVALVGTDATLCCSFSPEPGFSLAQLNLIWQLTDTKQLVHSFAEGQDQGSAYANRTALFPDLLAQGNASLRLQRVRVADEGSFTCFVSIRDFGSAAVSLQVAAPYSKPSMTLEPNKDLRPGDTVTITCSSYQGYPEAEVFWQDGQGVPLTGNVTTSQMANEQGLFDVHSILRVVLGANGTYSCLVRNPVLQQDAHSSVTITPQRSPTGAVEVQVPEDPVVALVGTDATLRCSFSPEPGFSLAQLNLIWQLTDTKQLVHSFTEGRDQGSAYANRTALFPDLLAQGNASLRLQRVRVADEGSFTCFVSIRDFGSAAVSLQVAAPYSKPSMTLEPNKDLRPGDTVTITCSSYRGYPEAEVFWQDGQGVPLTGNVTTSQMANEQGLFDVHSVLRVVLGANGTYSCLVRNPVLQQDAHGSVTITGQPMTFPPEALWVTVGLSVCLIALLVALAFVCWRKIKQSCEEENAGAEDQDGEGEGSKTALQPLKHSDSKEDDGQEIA

[3] = biological target: T2, B7-H3 on A498 and JIMT-1 target cells; test: cell-based or functional assay; remark: listed apart in the source
[4] = biological target: T1, CD8 on human T cells (PBMC); test: flow cytometry on human PBMC, CD5+/CD4- gated cells (bear CD8 and CD3), detection PE anti-human Fc (MFI)
Experimental: 50 μL (4×10⁶ cells/mL) of well-mixed cells in FACS buffer containing 0.01% sodium azide were then added into corresponding wells and mixed thoroughly using a pipette. The plate was incubated in the dark for about 45 minutes at 2-8° C. At the end of the incubation, the cells were washed twice by adding 300 μL of FACS buffer to each well, centrifuging the plate at 1,200 rpm for 5 minutes, and discarding the supernatant. The cell pellets were re-suspended in 100 μL mixture of PE-conjugated goat anti-Human Fcγ 1:500 diluted, CD5-APC and CD4-PerCP5.5 in FACS buffer containing 0.01% sodium azide, and incubated in the dark for about 45 minutes at 2-8° C. At the end of the incubation, the cells were washed, re-suspended with FACS buffer, and analyzed with a BD Caliber flow cytometer. Cells were gated to CD5⁺ CD4⁺ (FIG. 9A) or CD5⁺ CD4⁻ (FIG. 9B).

[5] = biological target: T1, CD8 on human T cells (PBMC); test: flow cytometry, binding to human CD5+/CD4- cells (bear CD8 and CD3) (MFI)

T1 sequence (P01732 22-235): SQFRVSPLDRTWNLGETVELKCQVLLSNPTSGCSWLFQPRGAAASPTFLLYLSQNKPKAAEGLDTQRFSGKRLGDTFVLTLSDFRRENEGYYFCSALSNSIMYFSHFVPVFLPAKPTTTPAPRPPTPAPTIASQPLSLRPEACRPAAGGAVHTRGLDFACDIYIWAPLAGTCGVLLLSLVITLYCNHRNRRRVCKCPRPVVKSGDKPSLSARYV

B1: B7-H3 mAb 1/CD3 mAb 2/CD8 mAb 1 Tri-Specific Binding Molecule (other)
chain 1: DIQMTQSPSSLSASVGDRVTITCRASQDISNYLNWYQQKPGKAPKLLIYYTSRLHSGVPSRFSGSGSGTDFTLTISSLQPEDIATYYCQQGNTLPPTFGGGTKLEIKGGGSGGGGEVQLVESGGGLVQPGGSLRLSCAASGFTFSTYAMNWVRQAPGKGLEWVGRIRSKYNNYATYYADSVKDRFTISRDDSKNSLYLQMNSLKTEDTAVYYCVRHGNFGNSYVSWFAYWGQGTLVTVSSGGCGGGEVAALEKEVAALEKEVAALEKEVAALEKGGGDKTHTCPPCPAPEAAGGPSVFLFPPKPKDTLMISRTPEVTCVVVDVSHEDPEVKFNWYVDGVEVHNAKTKPREEQYNSTYRVVSVLTVLHQDWLNGKEYKCKVSNKALPAPIEKTISKAKGQPREPQVYTLPPSREEMTKNQVSLWCLVKGFYPSDIAVEWESNGQPENNYKTTPPVLDSDGSFFLYSKLTVDKSRWQQGNVFSCSVMHEALHNHYTQKSLSLSPGK
chain 2: QAVVTQEPSLTVSPGGTVTLTCRSSTGAVTTSNYANWVQQKPGQAPRGLIGGTNKRAPWTPARFSGSLLGGKAALTITGAQAEDEADYYCALWYSNLWVFGGGTKLTVLGGGGSGGGGQVQLVQSGAEVKKPGASVKVSCKASGYTFTSYWMQWVRQAPGQGLEWMGTIYPGDGDTRYTQKFKGRVTITADKSTSTAYMELSSLRSEDTAVYYCARRGIPRLWYFDVWGQGTTVTVSSGGCGGGKVAALKEKVAALKEKVAALKEKVAALKE
heavy: EVQLQQSGAELVKPGASVKLSCTASGFNIKDTYIHFVRQRPEQGLEWIGRIDPANDNTLYASKFQGKATITADTSSNTAYMHLCSLTSGDTAVYYCGRGYGYYVFDHWGQGTTLTVSSASTKGPSVFPLAPSSKSTSGGTAALGCLVKDYFPEPVTVSWNSGALTSGVHTFPAVLQSSGLYSLSSVVTVPSSSLGTQTYICNVNHKPSNTKVDKRVEPKSCDKTHTCPPCPAPEAAGGPSVFLFPPKPKDTLMISRTPEVTCVVVDVSHEDPEVKFNWYVDGVEVHNAKTKPREEQYNSTYRVVSVLTVLHQDWLNGKEYKCKVSNKALPAPIEKTISKAKGQPREPQVYTLPPSREEMTKNQVSLSCAVKGFYPSDIAVEWESNGQPENNYKTTPPVLDSDGSFFLVSKLTVDKSRWQQGNVFSCSVMHEALHNRYTQKSLSLSPGK
light: DVQINQSPSFLAASPGETITINCRTSRSISQYLAWYQEKPGKTNKLLIYSGSTLQSGIPSRFSGSGSGTDFTLTISGLEPEDFAMYYCQQHNENPLTFGAGTKLELRRTVAAPSVFIFPPSDEQLKSGTASVVCLLNNFYPREAKVQWKVDNALQSGNSQESVTEQDSKDSTYSLSSTLTLSKADYEKHKVYACEVTHQGLSSPVTKSFNRGEC
notes: Four different polypeptide chains covalently complexed, with Fc Domain
EC50 (read off the curve) [1]: ~2 nM | LDH EC50 (pM), A498 cells [2]: 4 pM | LDH EC50 (pM), JIMT-1 cells [2]: 0.4 pM | Luciferase EC50 (pM), JIMT-1 cells [2]: 0.6 pM | EC50 (nM) of killing, CD4+ effector cells, JIMT1-luc target cells, E:T 5:1 [3]: 0.0721 nM | EC50 (nM) of killing, CD8+ effector cells, JIMT1-luc target cells, E:T 5:1 [3]: 0.0054 nM | EC50 (nM) of killing, PanT effector cells, JIMT1-luc target cells, E:T 5:1 [3]: 0.0082 nM | EC50 (read off the curve) [4]: ~2 nM | EC50 (read off the curve) [5]: ~2 nM
